In publication PMC4555173, “Octanoylation of early intermediates of mycobacterial methylglucose lipopolysaccharides” (Scientific Reports, 2015):

Tests used:
M. hassiacum OctT = M. hassiacum OctT (Mycolicibacterium hassiacum, UniProt K5BJH8); assay: CoA release with DTNB at […] nm; type: biochemical; details: DGG 20 mM, Oct-CoA 80 μM; product inhibition; enzyme species not given, M. hassiacum inferred from the characterisation
[1] = molecular target: M. tuberculosis OctT (Rv2418c) (Mycobacterium tuberculosis, UniProt P71725)
purified protein [2] = substrate: CCCCCC(=O)SCCNC(=O)CCNC(=O)[C@H](O)C(C)(C)COP(=O)(O)OP(=O)(O)OC[C@H]1O[C@@H](n2cnc3c(N)ncnc32)[C@H](O)[C@@H]1OP(=O)(O)O; assay: purified protein; type: biochemical, Mycolicibacterium hassiacum; details: apparent, DGG 20 mM, 50 mM BTP, 37 °C, substrate inhibition above 100 μM
purified protein [3] = substrate: CCCCCCCC(=O)SCCNC(=O)CCNC(=O)[C@H](O)C(C)(C)COP(=O)(O)OP(=O)(O)OC[C@H]1O[C@@H](n2cnc3c(N)ncnc32)[C@H](O)[C@@H]1OP(=O)(O)O; assay: purified protein; type: biochemical, Mycolicibacterium hassiacum; details: apparent, DGG 20 mM, 50 mM BTP, 37 °C, substrate inhibition above 100 μM
purified protein [4] = substrate: O=C(O)[C@@H](CO)O[C@H]1O[C@H](CO)[C@@H](O)[C@H](O)[C@H]1O; assay: purified protein; type: biochemical, Mycolicibacterium hassiacum; details: apparent, Oct-CoA 100 μM, 50 mM BTP, 37 °C
purified protein [5] = substrate: O=C(O)[C@@H](CO)O[C@H]1O[C@H](CO[C@H]2O[C@H](CO)[C@@H](O)[C@H](O)[C@H]2O)[C@@H](O)[C@H](O)[C@H]1O; assay: purified protein; type: biochemical, Mycolicibacterium hassiacum; details: apparent, Oct-CoA 100 μM, 50 mM BTP, 37 °C
purified protein [6] = substrate: CCCCCCCC(=O)SCCNC(=O)CCNC(=O)[C@H](O)C(C)(C)COP(=O)(O)OP(=O)(O)OC[C@H]1O[C@@H](n2cnc3c(N)ncnc32)[C@H](O)[C@@H]1OP(=O)(O)O; assay: purified protein; type: biochemical, Mycolicibacterium smegmatis; details: apparent, DGG 45 mM, 50 mM BTP, 37 °C, substrate inhibition above 100 μM
purified protein [7] = substrate: O=C(O)[C@@H](CO)O[C@H]1O[C@H](CO)[C@@H](O)[C@H](O)[C@H]1O; assay: purified protein; type: biochemical, Mycolicibacterium smegmatis; details: apparent, Oct-CoA 100 μM, 50 mM BTP, 37 °C
purified protein [8] = substrate: O=C(O)[C@@H](CO)O[C@H]1O[C@H](CO[C@H]2O[C@H](CO)[C@@H](O)[C@H](O)[C@H]2O)[C@@H](O)[C@H](O)[C@H]1O; assay: purified protein; type: biochemical, Mycolicibacterium smegmatis; details: apparent, Oct-CoA 100 μM, 50 mM BTP, 37 °C

Chain of M. tuberculosis OctT (Rv2418c) (P71725 whole entry): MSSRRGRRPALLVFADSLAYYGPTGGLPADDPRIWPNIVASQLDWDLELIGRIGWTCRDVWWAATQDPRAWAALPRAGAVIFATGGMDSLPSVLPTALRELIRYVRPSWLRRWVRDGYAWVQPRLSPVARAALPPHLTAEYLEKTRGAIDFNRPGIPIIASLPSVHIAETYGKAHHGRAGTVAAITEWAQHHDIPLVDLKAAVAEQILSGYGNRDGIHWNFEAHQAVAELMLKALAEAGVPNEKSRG

CCCCCCCC(=O)OC[C@H]1O[C@H](OC[C@H]2O[C@H](O[C@H](CO)C(=O)O)[C@H](O)[C@@H](O)[C@@H]2O)[C@H](O)[C@@H](O)[C@@H]1O [compound 1]
% loss of activity at 400 μM (M. hassiacum OctT): 22%

O=C(O)[C@@H](CO)O[C@H]1O[C@H](CO[C@H]2O[C@H](CO)[C@@H](O)[C@H](O)[C@H]2O)[C@@H](O)[C@H](O)[C@H]1O [DGG, (2R)-2-O-α-D-glucopyranosyl-(1→6)-α-D-glucopyranosyl-2,3-dihydroxypropanoate]
preparative conversion, TLC and NMR of product [1]: natural Oct-DGG produced by the M. tuberculosis, M. hassiacum and M. smegmatis recombinant OctT enzymes

B1: M. hassiacum OctT (Mycolicibacterium hassiacum DSM 44199) (protein)
chain: MSGRRPTLLVFCDSLSYYGPRGGLPADDPRIWPNIVASQLDWDVELIGRVGWTSRDVWWAATQDPRAWAALPRAGAVIFATGGMDSLPSPLPTALRELIRYIRPPWLRRRVRDLYGWLQPRLSPVSRNALPPHLTAEYLEMTRGAIDFNRPGIPVVAALPSVHIADSYGRAHHGREATARAITEWARQHGVVLVDLKAAVADQVLNGRGNPDGIHWNFEAHQAVAELMLKALAEAGVPCR
kcat/Km (purified protein [2]): 35 ± 10 M⁻¹ s⁻¹
Km (purified protein [3]): 0.06 ± 0.01 mM
kcat/Km (purified protein [3]): 31.7 ± 6.67 M⁻¹ s⁻¹
Km (purified protein [4]): 6.6 ± 0.78 mM
kcat/Km (purified protein [4]): 0.05 ± 0.00667 M⁻¹ s⁻¹
Km (purified protein [5]): 9.5 ± 0.8 mM
kcat/Km (purified protein [5]): 0.167 M⁻¹ s⁻¹

B2: M. smegmatis OctT (Mycolicibacterium smegmatis MC2 155) (protein)
chain: MSSETSSESTGHRPVLLVFADSLSYFGPTGGLPADDPRIWPNIVGEQLGWDVELIGRIGWTCRDVWWAATQDPRSWAALPRAGAVVFATSGMDSLPSPLPTALREMIRYVRPPWLRRWVRDGYGWVQPRLSPIARSALPPHVTVEYLEMTRNAIDFNRPGIPVVASLPSVHIAETYGRAHHGREPTVRAITAWAEEHHVPLVDLKAAVADEVFGGRGNPDGIHWSFEAHRAVAELMLKGLAEAGVTQRDSAT
Km (purified protein [6]): 0.03 ± 0.01 mM
kcat/Km (purified protein [6]): 1430 ± 483 M⁻¹ s⁻¹
Km (purified protein [7]): 19.0 ± 8.6 mM
Km (purified protein [8]): 20.0 ± 3.6 mM
kcat/Km (purified protein [8]): 1.83 ± 0.833 M⁻¹ s⁻¹
